The source of these data is paper PMC8092592.

Substrate in assay [1]: CC protein origami tetrahedron TET12SN
Briefly: ITC; nanobody in the syringe titrated into the cell with TET12SN or a tetrahedron variant (2-5 µM), CC peptide dimer (5-10 µM) or a complex preformed by a first titration; MicroCal VP-ITC, 25 °C; 20 mM sodium phosphate pH 7.0, 150 mM NaCl; independent binding sites model (SEDPHAT), errors by Monte-Carlo. In general terms: Isothermal titration calorimetry measures the heat released or taken up as one component is titrated into another.

For assay [2], the target named is protein origami tetrahedron TET12SN. Briefly: ITC; nanobody titrated into the CC peptide dimer, the origami protein or a preformed nanobody-target complex; conditions in SI Appendix.
Substrate in assay [3]: CC protein origami tetrahedron variant TET12SN(22CC)
Description: ITC; nanobody in the syringe titrated into the cell with TET12SN or a tetrahedron variant (2-5 µM), CC peptide dimer (5-10 µM) or a complex preformed by a first titration; MicroCal VP-ITC, 25 °C; 20 mM sodium phosphate pH 7.0, 150 mM NaCl; independent binding sites model (SEDPHAT), errors by Monte-Carlo. As to conditions: for stoichiometry N: scale: nanobody per TET12SN(22CC).

Assay [4] addresses preformed Nb30_2-TET12SN complex (llama). The description is as above.
For assay [5] the target is unchanged. Briefly: ITC; titrations at 18, 25 and 32 °C fitted globally (independent binding sites, temperature-independent heat capacity); parameters reported at 25 °C; 20 mM sodium phosphate pH 7.0, 150 mM NaCl.
Assay [6] has as its target preformed Nb30_(2)-TET12SN complex (llama). Description: ITC; nanobody titrated into the CC peptide dimer, the origami protein or a preformed nanobody-target complex; conditions in SI Appendix.
Substrate in assay [7]: CC protein origami tetrahedron TET12SN
Briefly: ITC; titrations at 18, 25 and 32 °C fitted globally (independent binding sites, temperature-independent heat capacity); parameters reported at 25 °C; 20 mM sodium phosphate pH 7.0, 150 mM NaCl.

The target in assay [8] is preformed Nb28_2-TET12SN complex (llama). Description: ITC; nanobody in the syringe titrated into the cell with TET12SN or a tetrahedron variant (2-5 µM), CC peptide dimer (5-10 µM) or a complex preformed by a first titration; MicroCal VP-ITC, 25 °C; 20 mM sodium phosphate pH 7.0, 150 mM NaCl; independent binding sites model (SEDPHAT), errors by Monte-Carlo.
Assay [9] has as its target preformed Nb28_2-TET12SN(22CC) complex (llama). The assay is described as above.
In assay [10] the target is preformed Nb28_(2)-TET12SN complex (llama). Briefly: ITC; nanobody titrated into the CC peptide dimer, the origami protein or a preformed nanobody-target complex; conditions in SI Appendix.

B1: nanobody Nb26 (VHH)
VHH: QVQLQESGGGLVQAGDSLRLSCAASGRTFSTYPMGWFRQAPGKEREFVAASSSRAYYADSVKGRFTISRNNAKNTVYLQMNSLKPEDTAVYYCVADSSPYYRRYDAAQDYDYWGQGTQVTVSS
With B1, in assay [1], the stoichiometry N (nanobody per TET12SN (cell:syringe)) was determined as 2. This molecule yielded an equilibrium dissociation constant (Kd) in assay [2] of 1.8 nM.

B2: nanobody Nb28 (VHH)
VHH: QVQLQESGGGLVQPGGSLRLSCAAPGFRLDNYVIGWFRQAPGKEREGVSCISSSAGSTYYADSVKGRFTISRDNAKNTVYLQMNSLKPEDTAVYYCATACYSSYVTYWGQGTQVTVSS
B2: the Kd is 27 nM in assay [3]; 2.3 nM in [4]; 1.6 nM in assay [5]; 2 nM in assay [6]; 39 nM in [2]; 19 nM in assay [7]. Moreover, the stoichiometry N in assay [3] was found to be 2. In addition, the stoichiometry N (nanobody per TET12SN (cell:syringe)) in assay [1] and in assay [7] was 2 in each case. Also, the stoichiometry N (nanobody per complex (cell:syringe)) in assay [4] and in assay [5] was 2 each time.

B3: nanobody Nb49 (VHH)
VHH: QVQLQESGGGLVQPGGSLRLSCIASGRTFNPYGMGWFRQVPGKERTFVSGITWIGGTTYYVNSVKGRFTISRDRAKNTVYLQMNSLKPEDTAVYYCAADKDNTGYNYWGQGTQVTVSS
As to B3, the stoichiometry N (nanobody per TET12SN (cell:syringe)) in assay [1] was 2. The molecule also displayed a dissociation constant Kd in assay [2] of 160 nM.

B4: nanobody Nb39 (VHH)
VHH: QVQLQESGGGLVQAGGSLRLSCAASGSIFSINVMGWYRQAPGKQRELLASITSRGSTNYADSVKDRFTISRDNAKNTVYLQINSLKPEDTAVYYCNSRGWTTTRGDYDYWGQGTQVTVSS
As to B4, the stoichiometry N (nanobody per TET12SN (cell:syringe)) in assay [1] is 2. In [2], this molecule showed a KD, high-affinity site of 27 nM and a KD, second binding site of 2000 nM.

B5: nanobody Nb30 (VHH)
VHH: QVQLQESGGGLVQPGGSLRLSCAASGSIFSDNDMGWYRQPPGKQREWVATITYDHVTWYADSVKGRFAISRDNAKNTVYLQMNDLKPEDTAVYYCNAVPGRRGSWGQGTQVTVSS
On to B5, for which the Kd in assay [3] was determined as 270 nM; in assay [9], 24 nM; in [2], 350 nM; in assay [10] it was 26 nM; in assay [7] it was 160 nM. Further, the stoichiometry N in assay [3] was 2. In addition, the stoichiometry N (nanobody per TET12SN (cell:syringe)) in [1] and in assay [7] was 2 throughout. For the same molecule, the stoichiometry N (nanobody per complex (cell:syringe)) in [8] and in [9] was 2 in each case.

B6: nanobody Nb34 (VHH)
VHH: QVQLQESGGGLVQPGGSLRLSCAASQFTFSSDWMYWVRQAPGKGLEWVSSISPGGAATAYAASVKGRFTISRDNAKNTLYLQMNSLKSEDTAVYYCSKTRAGTGRGQGTQVTVSS
As to B6, the stoichiometry N (nanobody per TET12SN (cell:syringe)) in [1] was 1. Also, the Kd in [2] stood at 21000 nM.

One may read the Kd as the concentration at which binding is half-saturated. The term stoichiometry N denotes the number of molecules, sites or subunits per partner or assembly.
